The target in this data set is streptavidin (UniProt P22629 25-183). In words: EMSA.
Sequence of streptavidin (P22629 25-183): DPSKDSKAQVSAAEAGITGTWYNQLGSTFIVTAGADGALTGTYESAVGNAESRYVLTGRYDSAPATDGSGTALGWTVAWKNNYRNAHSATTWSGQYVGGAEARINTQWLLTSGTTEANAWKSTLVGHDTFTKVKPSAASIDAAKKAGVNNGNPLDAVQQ

B1: S1-77 (structured_RNA)
RNA: GGGCCAUCGAUGCGGCCGCCGACCAGAAUCAUGCAAGUGCGUAAGAUAGUCGCGGGUCGGCGGCCGCAUCGAUGGCC
For B1, the binding result is listed as “binds”.

(Values after PMC2685113.)
